Source: the nanobody polyreactivity screen of Harvey et al. (2022)

Assay: yeast display, Sf9 membrane polyspecificity reagent, FACS + sequencing; frameworks hold sequencing errors
Procedure, shortened: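 Nanobodies from a synthetic yeast display library (Saccharomyces cerevisiae BJ5465), induced 36–48 hours with galactose, were stained 1 hour at 4 °C with 10% biotinylated, detergent-solubilized Sf9 membrane reagent, enriched on streptavidin microbeads, then FACS-sorted. Anti-HA (expression) and streptavidin (reagent binding) fluorescence set low and high (top ~1%) gates. Polyreactivity labels come from the gate of origin. Genes were colony-PCR amplified, MiSeq 2 × 250 sequenced and filtered by CDR length.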

Sequence	polyreactivity (PSR sort gate)
QVQLVESGVGLVQAGGSLRLSCAASGRTFSRNAMGWYRQAPGKERELVAAISRSGGSTYYADSVKGRFTISRDNAKNTVYLQMNSLKPEDTAVYYCNADVYSTYYNYNYWGQGTQVTVSS	high polyreactivity
QVQLVESGVGLVQAGGSLRLSCAASGSIFEYYTMGWYRQAPGKERELVAAISSDGSTNYADSVTGRFTISRDDAKTTVYLQMISLKPEDTAVDYCASSTSRFYYYRKRGYWGQGTQVTVSS	low polyreactivity
QVQLVESGVGLVQAGGSLRLSCAASGSIFTYYAMGWYRQAPGKEREFVAGISWSGGRTYYADSVKGRFTISRDNAKNTVYLQMNSLKPEDTAVYYCNRQYRYIPSPCDYWGQGTQVTVSS	low polyreactivity
QVQLVESGVGLVQAGGSLRLSCAASGSIFYRYAMGWYRQAPGKEREFVARITSSGGSTNYADSVKGRFTISRDNAKNTVYLQMNSLKPEDTAVYYCAKRGWSSYGRYDSWGQGTQVTVSS	high polyreactivity
QVQLVESGVGLVQAGGSLRLSCAASGSISQGNAMGWYRQAPGKERELVAANRWTSGRTYYADSVKGRFTISRDIAKNTVYLQMNSLKPEDTAEYYCAAYYVYYTPTLFDRVYWGQGSQVTVSS	low polyreactivity
QVQLVESGVGLVQAGGSLRLSCAASGSTFRGYAMGWYRQAPGKERELVAAISGIGGSTYYADSVKGRFTISRDNAKNTVYLQMNSLKPEDTAVYYCNAVSGDSGDYWGQGTQVTVSS	low polyreactivity
QVQLVESGVGLVQAGGSLRLSCAASGSTFTANAMGLYRQAPGKERELVAAISSTGGSTYYADSVKGRFTISRDNEKNTVYLQMNSLKPEDTAVYYCNKDGPYQVITYDYWGQGTKVTVSS	high polyreactivity
QVQLVESGVGLVQAGGSLRLSCAASGSTFVYMGWYRQAPGKEREFVAAITWSGGSTYYADSVKGRFTISRDNAKNTVYLQMNSLKPEDTAVYYCNAVSVFPGWARYYYWGQGTQVTVSS	low polyreactivity
QVQLVESGVGLVQAGGSLRLSCAASGSTFYRYAMGWYRQAPGKERELVAAIRGSGGRTYYADSVKGRFTISRDNAKNTVYLQMNSLKPEDTAVYYCAAYRGVSQKGDYWGQGTQVTVSS	high polyreactivity
QVQLVESGVGLVQAGGSLRLSCAASGSTFYVYTMGWYRQAPGKERELVAAISLSGDNTYYADSVKGRFTISRDNAKNTVYLQMNSLKPEDTAVYYCAADVFYSPSAQKYDSWGQGTQVTVSS	low polyreactivity
QVQLVESGVGLVQAGGSLRLSCAASGYIFFGNAMGWYRQAPGKERELVAAIRWRGTSTYYADSVKGRFTISRDNAKNTVYLQMNSLKPEDTAVYYCAADVVRSNFYGTFLYDYDYWGQGTQVTVSS	low polyreactivity
QVQLVESGVGLVQAGGSLRLSCAAYGSIFDGYAMGWYRPAPGKEREFVATITVSGGRSYYADSVKGSFTISRDNANNTVYLEMNSLKPEDTAVYYGNVDVFYYPHRYDYWGQGTQVTVSS	high polyreactivity
QVQLVESGVGLVQAGGSLRLSCAHSGRIFFKNTMGWYRQAPGKERELVAAITSSGSSTYYADSVKGRFTISRDNAMNTVYLQMNSLKPEDTAVYYCNADYGFSFYWYDFWGHGTQVTVSS	low polyreactivity
QVQLVESGVGLVQAGGSLRLSCASSGRILTYYAMGWYRQAPGKERELVASISSNGGTYYADSVKGRFTISRDNAKNTVYLQMNSLKPEDTAVYYCNAKRVARYQYGASYNYWGQGTQVTVSS	high polyreactivity
QVQLVESGVGLVQAGGSLRLSCSASGIIFDDYAMGWYRQAPGKERELVAAISRRGGSTYYADSVKGRFTISRDNAKNTVYLQMNSLKPEDTAVYYCAATTRTYSLYNYWGQGTHVTVSS	high polyreactivity
QVQLVESGVGLVQAGGSLRLSCSASGSIFDYYAMGWYRQAHGKERELVAAISWRGGRTYYADSVKGRFTISRDNAKNTVYLQMNSLNPVDTAVYYCNTQEPYYESDYWGLGTQVTVSS	high polyreactivity
QVQLVESGVGLVQAGGSLRLSCSASGSTFYTYAMGWYRQAPGKDRELVAAINLRGGRTYYADSVKGRFTISRDTAKNTVYLQMNSRKPEDTAVYYCAAQSIAYYKQIYYLGMDYWGQGTQVTVSS	high polyreactivity
QVQLVESGVGLVQAGGSLRLSFASSGRIFPTNAMGSYSQAPRKEREFVPAITWRGGSTYYADSVKGRFTISRDNAKNTVYLQINSLKPEDTAVYYCAATGHIVFFRAYDYGYWGQGTQVTVSS	low polyreactivity
QVQLVESGVGLVQAGGSLRLTCAASGRIFVRNAMGWYRQAPGKEMELVARITSSTGRTYYADSVKGRFTISRDNAKNTVYLQFTSLKPEDTAVYYCAVRYFYQFWAYDYWGKGTQVTVSS	high polyreactivity
QVQLVESGVGLVQAGGSLRLTCAASGSIFTAYPMGSYRQAPGKERELVAAISRSGGRTYYADSVKGRFTISRDNAQITVNFQFNSLKPEDTAVYNCAAASRSTNYNYYYWGLGTQVTVSS	high polyreactivity
QVQLVESGVGLVQAGGSLRVSCAASGSTIPIYAMGWYRQAPGKERELVAVISRSGGITYYADSVKGRFTISRDNAKNTVYLQMNSLKPEDTAVYYCNARTRGWTPDRGYWGQGTQVTVSS	high polyreactivity
QVQLVESGVGLVQAGGSLSLSCAASGCTLRYYVMGWYRQAPGKERELVASISWSGDSTYYADSVKGRFTISRDNAKNTVYLQMNSLKPEDTAVYYCAARRWYVHYFAYGYWGQGTQVTVSS	low polyreactivity

Sequence	polyreactivity (PSR sort gate)
QVQLVESGVGLVQAGGSLSLSCAATGRIFNSYMGWYRQAPGKERELDAAISWSSGTSTYYADSVKGRFTISRDNAKNTVYLQMNSLKPEDTAVYYCNADDYYGPYPEEYDYWGQGTQVTVSS	low polyreactivity
QVQLVESGVGLVQAGGSLSLSCASSGFIFSANDMGWYRPAPGKERELVADIDSSGRTNYADSVKGRVTISRDNAKNTVYLQMNSLKPEDTAVYYCATPPDDTGGGYRGYDYWGQGTQVTVSS	low polyreactivity
QVQLVESGVGLVQAGGSRRLSCAASGRTFFDNVMGWYRQAPGKERELVAAIRSAGTTYYADSVKGRFTISRDNAKNTVYLQMNRLKPEDTAVYYCAATNRYYWSYFYQAKYGYWGQGTQVTVSS	low polyreactivity
QVQLVESGVGLVQAGGTLRLSCAASGFIFRKYGMGWYRQAPGKERELVAAIRFTGGSTRYADSVKGRFTISRDNAKNTVYLQMNSLIPEDTAVYYCNADRVYVRGRFTYDYWGQGTQVTVSS	low polyreactivity
QVQLVESGVGLVQAGGTLRLSCAASGSIFDPYAMGWYRQAPGKERELVAAITYSVGGTTYYADSVKGRFTISRDNAKNTVYLQMNSLKPEDTAVYYCAAEWWGNPFDYWGQGTQVTVST	high polyreactivity
QVQLVESGVGLVQAVGSLRISCAASGRIFQPYAMGWYRQAPGNERELVARITRRGVSTYYADSVKGRFTISRENAKNTVYLQMNSLKPEDTAVYYCAAELFGGYYYWGLGTQVTVSS	high polyreactivity
QVQLVESGVGVVQAGGSLRLSCAASGSTYVDNAMGWYRQAPGKERELVAGNSWSGASTYYADSVKGRFTISRDNAKNTFYLQMNSLKAEDTAVYYCATRVRAYYHQSWGYTERVYWGQGTQVTVSS	high polyreactivity
QVQLVESGVVLVQAGGSLPLSCSASGRIFIHYAMGWYRQAPGKERELVAAISASGGTTNYADSVKGRFTISRDNAKNTVYLQMNSLKPEDTAVYYCAAEGYRSWRGLRSRYYYWGEGTQVTVSS	high polyreactivity
QVQLVESPGGLVQAGGSLRLSCAASGSIFGSYAMGWYRQEPGKEREFVAVITSASTNYADSVKGRFTISRDNAKNTVNLQLNSLKPEDTAVYYCNKRGTRIRRTNKSHGVDYWGQGTQVTVSS	low polyreactivity
QVQLVESRAGLVQAGGSLRLSCAASGNIFDIYAMGWYRQAPGKERELVAAISSGGSTYYADSVKGRFTISRDNAKNTVYLQLNSLKPEDTAVYYCAESRVGYYRYEYWGQGNQVTVSS	low polyreactivity
QVQLVESRGALVQAGGSLRLSCAASGSIFSRYAMGWYRQAPGKERELVAAIRWTDSSTYYADSVKGRFTISRDHAKNTVYLQMNSLKPEDTAVYDCAKVYEGGSNKVDYWGQGTQVTVSS	low polyreactivity
QVQLVESRGCLVQAGGSLRLSCAASGFIFAYYAMGWYRQAPRKERELVGAISSGGTTNYADSVMGRFTSSRDNAKNTVYLQMNSLKPEDTAVYYCAAAWGYYSTTIYKYSFNYDFWGQGTQVTVSS	high polyreactivity
QVQLVESRGCLVQAGGSLRLSCAASGRTFYRYVMGWYRQAPGKEMELVAAISEGGGSTFYADSVKGRFTISRDNAKNTDYLQMNSLKPEDTAVYYCAADYYVRGGFFRYDYWGQGTQVTVSS	low polyreactivity
QVQLVESRGCLVQPGGSLLLSCAASGIIFGHYVMGWYRQAPGKERELVAAISSRGGNTYYADSVKGRFTISRDNAKNTVYLQMNSLKPEDTAVYYCAADRYATPMDYWGQGTQVTVSS	high polyreactivity
QVQLVESRGGIVQAGGSLRLISAASGRTFGWNAKGWYRQERGKERELVAAISLRGTSTYYADSVKGRFTISRDNAKNTVYLQMNSLKPEDTAVYYCNTLVYVPYHEDYWGQGTQVTVSS	high polyreactivity
QVQLVESRGGLVQAARSLRLSFAASGSIFSSNAMGWYRQAPGKERELVAAITSVGSTTYADSVKGRFTISRDNAKNTVYLQMNSLKPEDTAVYYFAADPVYRYYHGWTYVDYVYWGQGTQVTVSS	low polyreactivity
QVQLVESRGGLVQAGASLRLSCAASALIFGYYAMGCYRQAPVKEREFVAAIDGSDGTTYYADSVKGRFTIARDNAKNTVYLQMNSLKPEDTAVYYCNADSSSYSSDLGYDYWGQGTQVTVSS	low polyreactivity
QVQLVESRGGLVQAGCSLRLRCAASGYIFYGYDKGWYRPAPGKERELVAGITYSGGGGTHYADSVKGRFTISRDNAKNTVYLQMNSLKQEDRGVYYCAKADPQLNRTYYSYGMDSWGQGTQVTVSS	low polyreactivity
QVQLVESRGGLVQAGGILRLSCAACGSTFPKYAMGWYRQAPGKERELVAAITGISGRTYYADSLKGRFTISRDNAKNTVYLQMNSLKPEDTAVYYCNARIFAGWSIYNYWGQGTQVTVSS	high polyreactivity
QVQLVESRGGLVQAGGSLRISCAASGRIFGYNAMGWYRQAPGKERELVAAISASGGRTYYADSVKARFTISRDNAKNTVYLQMNSLKPEDTAVYYCATKYRSFYSYDYWGQGTQVTVSS	high polyreactivity
QVQLVESRGGLVQAGGSLRLICAASGFILDTSAMGWYRQAPGKERALVAAISASGSSTYYADSVKGRFTISRDNAKNTLYLQMNSLKPEDTAVNYCAAKDTGYGYGFPRLDYWGQGTQVNVSS	low polyreactivity
